± gives the uncertainty stated by the source.

The data set is described as follows: self-splicing fitness, log relative to wild type (ln ratio); higher = more splicing; Tetrahymena group I intron in knt gene, E. coli kanamycin selection, DiMSum; sequences stand for … in CUCUCU…GGAGGGAAAAGUUAUCAGGCAUGCACCUGGUAGCUAGUCUUUAAACCAAUAGAUUGCAUCGGUUUAAAAGGCAAGACCGUCAAAUUGCGGGAAAGGGGUCAACAGCCGUUCAGUACCAAGUCUCAGGGGAAACUUUGAGAUGGCCUUGCAAAGGGUAUGGUAAUAAGCUGACGGACAUGGUCCUAACCACGCAGCCAAGUCCUAAGUCAACAGAUCUUCUGUUGAUAUGGAUGCAGUUCACAGACUAAAUGUCGGUCGGGGAAGAUGUAUUCUUCUCAUAAGAUAUAGUCGGACCUCUCCUUAAUGGGAGCUAGCGGAUGAAGUGAUGCAACACUGGAGCCGCUGGGAACUAAUUUGUAUGCGAAAGUAUAUUGAUUAGUUUUGGAGUACUCGUGGUCG
A digest of the protocol: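 DiMSum derived fitness as the error-weighted combination of fold changes across replicates, kanamycin versus no kanamycin, normalised to wild type. E. coli BL21(DE3) held the library, which randomised all eight P1ex-region intron nucleotides within the knt kanamycin-resistance gene on pET-22b(+). Six replicate transformations grew overnight at 37°C or 30°C on LB agar with or without 25 μg/mL kanamycin, also containing 100 μg/mL carbenicillin, 50 μM IPTG and 0.2% rhamnose, and pooled colonies were amplicon-sequenced on an Illumina HiSeq 2500.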

In the case of GGGGAGCAAUAUUACGUUUA, the “self-splicing fitness (ln)” value (30 °C) was -2.13 ± 0.28 and the “self-splicing fitness (ln)” value (37 °C) is -2.77 ± 0.48. The corresponding values for GGGUAGCAAUAUUACGAACU are -0.832 ± 0.27 and -0.534 ± 0.19. On to GGGUAGCAAUAUUACGAUCU, for which the “self-splicing fitness (ln)” value reads like this: (30 °C) -1.64 ± 0.092; (37 °C) -0.576 ± 0.11. The corresponding values for GGGUAGCAAUAUUACGCCGA are -0.784 ± 0.16 and -0.0895 ± 0.11. For GGGUAGCAAUAUUACGGACU the same measures were -0.272 ± 0.19 and 0.331 ± 0.24. For GGGUAGCAAUAUUACGGCAA the same measures were -0.369 ± 0.24 and -0.33 ± 0.28. As to GGGUAGCAAUAUUACGGGCC, where the note is “30 °C”, the “self-splicing fitness (ln)” value is -2.03 ± 0.38.

Consider GGGUAGCAAUAUUACGGGCG, for which the “self-splicing fitness (ln)” value is, setting by setting: (30 °C) -0.346 ± 0.098; (37 °C) -0.12 ± 0.13. For the sequence GGGUAGCAAUAUUACGGUGU, the “self-splicing fitness (ln)” value reads like this: (30 °C) -1.09 ± 0.095; (37 °C) -0.365 ± 0.12. For GGGUAGCAAUAUUACGUACA the same measures were -1.34 ± 0.2 and -0.763 ± 0.21. For GGGUAGCAAUAUUACGUACG the same measures were -0.676 ± 0.23 and -0.536 ± 0.29. GGGUAGCAAUAUUACGUAGU: the “self-splicing fitness (ln)” value is, setting by setting: (30 °C) -2.23 ± 0.085; (37 °C) -0.762 ± 0.093.

As to GGGUAGCAAUAUUACGUCUU, the “self-splicing fitness (ln)” value was -0.106 ± 0.1 (30 °C) and 0.268 ± 0.14 (37 °C). The corresponding values for GGGUAGCAAUAUUACGUUUC are -2.16 ± 0.12 and -0.68 ± 0.15. As for GGUAAGCAAUAUUACGAACC, under “37 °C”, the “self-splicing fitness (ln)” value is -1.64 ± 0.42.

As for GGUAAGCAAUAUUACGAAUU, the “self-splicing fitness (ln)” value is, setting by setting: (30 °C) -1.04 ± 0.11; (37 °C) -0.205 ± 0.14.

As to GGUAAGCAAUAUUACGACAG, the “self-splicing fitness (ln)” value was -2.56 ± 0.29 (30 °C) and -1.99 ± 0.44 (37 °C). The corresponding values for GGUAAGCAAUAUUACGACUA are 0.407 ± 0.12 and -0.574 ± 0.12. The corresponding values for GGUAAGCAAUAUUACGAGCU are -3.03 ± 0.35 and -1.36 ± 0.25. In the case of GGUAAGCAAUAUUACGAGUA, the “self-splicing fitness (ln)” value (30 °C) was -2.4 ± 0.21 and the “self-splicing fitness (ln)” value (37 °C) was -1.03 ± 0.14.

Take GGUAAGCAAUAUUACGAUGG: the “self-splicing fitness (ln)” value runs as follows: (30 °C) -3.83 ± 0.39; (37 °C) -2.64 ± 0.33. On to GGUAAGCAAUAUUACGCAAA, for which the “self-splicing fitness (ln)” value was -2.37 ± 0.22 (30 °C) and -1.15 ± 0.17 (37 °C). The corresponding values for GGUAAGCAAUAUUACGCAGU are -1.51 ± 0.17 and -1.55 ± 0.24. The corresponding values for GGUAAGCAAUAUUACGCAUA are -1.19 ± 0.15 and 0.0315 ± 0.17. With GGUAAGCAAUAUUACGCGCC, the “self-splicing fitness (ln)” value was -2.99 ± 0.33 (30 °C) and -1.48 ± 0.29 (37 °C).

GGUAAGCAAUAUUACGCUCA: the “self-splicing fitness (ln)” value was -0.326 ± 0.26 (30 °C) and -0.105 ± 0.48 (37 °C). As to GGUAAGCAAUAUUACGCUGC, the “self-splicing fitness (ln)” value (30 °C) is -2.94 ± 0.2. GGUAAGCAAUAUUACGCUUC: the “self-splicing fitness (ln)” value is -4.14 ± 0.42 (30 °C) and -1.58 ± 0.35 (37 °C). Consider GGUAAGCAAUAUUACGGAAG, for which the “self-splicing fitness (ln)” value is -3.03 ± 0.18 (30 °C) and -2.56 ± 0.26 (37 °C). For GGUAAGCAAUAUUACGGAGC the same measures were -2.99 ± 0.2 and -1.98 ± 0.22. With GGUAAGCAAUAUUACGGCAA, the “self-splicing fitness (ln)” value is -0.143 ± 0.12 (30 °C) and -0.18 ± 0.15 (37 °C). For GGUAAGCAAUAUUACGGCCG the same measures were -0.712 ± 0.12 and -0.544 ± 0.17. For GGUAAGCAAUAUUACGGCUU the same measures were -0.104 ± 0.075 and 0.352 ± 0.11. The corresponding values for GGUAAGCAAUAUUACGGUCU are 0.187 ± 0.083 and -0.0802 ± 0.087.

Consider GGUAAGCAAUAUUACGUAAC, for which the “self-splicing fitness (ln)” value (30 °C) was -1.86 ± 0.13 and the “self-splicing fitness (ln)” value (37 °C) was -0.278 ± 0.15.

Consider GGUAAGCAAUAUUACGUAAU, for which the “self-splicing fitness (ln)” value runs as follows: (30 °C) -1.21 ± 0.096; (37 °C) -0.781 ± 0.12. Regarding GGUAAGCAAUAUUACGUACA, the “self-splicing fitness (ln)” value is -0.648 ± 0.1 (30 °C) and 0.294 ± 0.14 (37 °C). The corresponding values for GGUAAGCAAUAUUACGUAGG are -2.78 ± 0.19 and -3.5 ± 0.28.

Values taken from the supplement of paper PMC7877785.
